Assay [1] addresses BhuU, transmembrane permease subunit (TMD) of the haem importer BhuUV (Burkholderia cenocepacia). As to the kind of experiment: crystal structure; BhuUV without BhuT, nucleotide-free; 30% PEG 400, 0.1 M NaCl, 0.1 M Li2SO4, 0.1 M Tris-HCl pH 8.5, 4 °C; 2.8 Å.
Assay [2] has the same target. The assay can be described thus: crystal structure; BhuUV-T complex, nucleotide-free and haem-free, in n-nonyl-beta-D-glucopyranoside; crystallised at 20 °C, 15% PEG 2000, 0.1 M HEPES pH 7.6; 3.2 Å.
Assay [3] concerns the target BhuV, nucleotide-binding ATPase subunit (NBD) of the haem importer BhuUV (Burkholderia cenocepacia). The assay can be described thus: crystal structure; BhuUV without BhuT, nucleotide-free; 30% PEG 400, 0.1 M NaCl, 0.1 M Li2SO4, 0.1 M Tris-HCl pH 8.5, 4 °C; 2.8 Å.
Assay [4] shares this target. The assay can be described thus: crystal structure; BhuUV-T complex, nucleotide-free and haem-free, in n-nonyl-beta-D-glucopyranoside; crystallised at 20 °C, 15% PEG 2000, 0.1 M HEPES pH 7.6; 3.2 Å.
Assay [5] has as its target BhuUV haem importer complex (two BhuU and two BhuV) (Burkholderia cenocepacia).

A word on the stoichiometry N: it is the number of molecules, sites or subunits per partner or assembly.

Take “BhuU, transmembrane permease subunit (TMD) of the haem importer BhuUV (natural protein)”: the stoichiometry N in assay [1] and in assay [2] was 2 throughout.

As for “BhuV, nucleotide-binding ATPase subunit (NBD) of the haem importer BhuUV (natural protein)”, the stoichiometry N in assay [3] and in assay [4] was 2 throughout.

For the substance “BhuT, periplasmic haem-binding protein (PBP), residues 40-311 (domain or fragment)”, in assay [5], the ATPase activity (Vmax) of BhuUV in detergent solution on addition of haem-free BhuT (Vmax 5.0 to 7.1 μmol min^−1 mg^−1) stood at 1.4 fold and the ATPase activity of BhuUV reconstituted in liposomes, with BhuT stood at 1.4 fold.

Values taken from PMC5136619, “Crystal structure of bacterial haem importer complex in the inward-facing conformation” (Nature Communications, 2016).
